# How the values were obtained:
# [1] = target: Recombinant mouse IL-12Rβ2-Fc chimera protein (mouse) (UniProt P97378); test: SPR; IL-23R-Fc and IL-12Rβ2-Fc captured on a Protein A chip (~150 RU); HIL-12 (0.3-5 nM) or HIL-23 (15-1000 nM) variants injected at 30 μl/min; 25 °C, PBS pH 7.4, 0.05% P20; multi-cycle; 1:1 binding model; Biacore X100
# [2] = target: Recombinant mouse IL-23R-Fc chimera protein (mouse) (UniProt Q8K4B4); test: as above
# Sequence of UniProt Q8K4B4 (Q8K4B4 24-374, change not shown): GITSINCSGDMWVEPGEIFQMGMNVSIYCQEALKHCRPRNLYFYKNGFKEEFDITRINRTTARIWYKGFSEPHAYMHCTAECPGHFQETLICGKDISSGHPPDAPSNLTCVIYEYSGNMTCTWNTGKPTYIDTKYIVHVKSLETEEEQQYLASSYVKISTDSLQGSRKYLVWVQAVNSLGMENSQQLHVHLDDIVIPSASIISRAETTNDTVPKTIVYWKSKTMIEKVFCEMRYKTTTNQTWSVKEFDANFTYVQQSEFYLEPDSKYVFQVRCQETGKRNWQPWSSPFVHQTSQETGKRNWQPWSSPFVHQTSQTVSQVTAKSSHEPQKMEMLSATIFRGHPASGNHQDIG
# Sequence of UniProt P97378 (P97378 24-637, stated change not applied): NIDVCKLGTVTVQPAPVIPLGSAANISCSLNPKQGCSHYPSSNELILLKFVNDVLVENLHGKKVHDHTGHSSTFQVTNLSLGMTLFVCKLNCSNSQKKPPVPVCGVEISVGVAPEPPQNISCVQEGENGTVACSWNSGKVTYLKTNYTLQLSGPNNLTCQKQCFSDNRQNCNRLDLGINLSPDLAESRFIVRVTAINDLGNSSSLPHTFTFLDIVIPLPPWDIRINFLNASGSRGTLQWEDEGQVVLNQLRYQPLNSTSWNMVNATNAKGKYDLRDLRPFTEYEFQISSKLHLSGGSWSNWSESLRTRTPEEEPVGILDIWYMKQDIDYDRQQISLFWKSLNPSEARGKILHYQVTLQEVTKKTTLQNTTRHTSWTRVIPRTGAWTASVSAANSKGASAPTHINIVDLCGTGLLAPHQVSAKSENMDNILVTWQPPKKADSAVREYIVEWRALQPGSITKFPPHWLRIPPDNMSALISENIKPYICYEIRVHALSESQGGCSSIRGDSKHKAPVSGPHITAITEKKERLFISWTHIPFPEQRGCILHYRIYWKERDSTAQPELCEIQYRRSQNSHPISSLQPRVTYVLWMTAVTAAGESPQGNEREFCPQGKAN
Substance,Kd [1],koff [1],kon [1],Kd [2],koff [2],kon [2]
"HIL-12D36K/W37K/T38K, purified with Twin-Strep-tag (ligand)",0.84 nM,0.0027 s⁻¹,3.2e+06 M⁻¹ s⁻¹,–,–,–
"murine Hyper-IL-23 (HIL-23), purified with Twin-Strep-tag (from UniProt P43432 23-335) (ligand)",–,–,–,40 nM,0.0012 s⁻¹,30000 M⁻¹ s⁻¹
"HIL-23D36K/W37K/T38K, purified with Twin-Strep-tag (from UniProt P43432 23-335) (ligand)",–,–,–,57 nM,0.0011 s⁻¹,19000 M⁻¹ s⁻¹
"murine Hyper-IL-12 (HIL-12), purified with Twin-Strep-tag (ligand)",0.987 nM,0.0019 s⁻¹,1.9e+06 M⁻¹ s⁻¹,–,–,–

# Reference: publication PMC8571081
